Source: patent US20220396615A1 (published 2022)

Assays:
[1] = molecular target: T1, Tag-free human IL6 recombinant protein (GenScript, Cat. No. Z03034) (human, UniProt P05231 30-212); assay: ELISA
[2] = molecular target: T1, Tag-free human IL6 recombinant protein …; assay: SPR (Biacore)

T1 sequence (P05231 30-212, one chain of several): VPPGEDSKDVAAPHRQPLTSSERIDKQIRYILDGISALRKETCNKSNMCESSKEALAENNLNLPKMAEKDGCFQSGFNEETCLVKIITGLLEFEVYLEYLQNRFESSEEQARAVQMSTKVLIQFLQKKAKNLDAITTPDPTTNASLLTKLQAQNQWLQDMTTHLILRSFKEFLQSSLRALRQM

EC50 [1] [µg/mL]	Kd [2] [pM]	Binder
0.018	84.7	41A10B8 (antibody, V domains shown) VH: EVKLEESGGGLVQPGGSMKLSCAASGFTFSDAWMDWVRQSPDKGLEWVAEIRSKTYHPATYYTKSVRGRFTISRDDSKSSVYLQMNNLGAEDTGIYYCTRPRYYGGYFDYWGQGTTLTVSS VL: not shown
0.0153	265	49F10H6 (antibody, V domains shown) VH: QVQLQQPGAELVKPGASVKMSCKASGYTFTNYIIHWIKQTPGQGLEWIGAIYPGNGDTSYSQKFKDKATLTADRSSSTAYMQLSSLTSEDSAVYYCARGDAGYSAWFAYWGQGTLVTVSA VL: NIVLTQSPASLAVSLGQRATISCSASESVDSYGNNFMHWYQQRPGQPPKLLIYLASKLESGVPARFSGSGSRTEFTLTIDPVEAEDAATYYCQQNNEDPLTFGAGTKLELK
0.0196	230	61G1D8 (rat) (antibody, V domains shown) VH: EVQLLESGGGLVQPGRSMKLSCAASGFTFSSFPMAWVRQTPSKALEWVATISPSGGTSYSRDSVKGRFTISRDNANSTLCLHMDSLKSEDTATYYCLRERIYNTYFDYWGQGVMVTVSS VL: DIRMTHSPASLSASLGETVSIECLPSEDISSDLAWYQQKPGKSPQLLIYNANTLPNGVPSRFSGSRSGAQYFLKINSLQSEDVATYFCQQYDSYPYTFGTGTKLELK
	0.0225	53A2F9 (rat) (antibody, V domains shown) VH: QVQLKESGPGLVQPSQTLSLTCTVSGFSLTSHTVSWIRQPPGRGLEWMGKMWSNGDTDYDSAIRSRLSITRDTSKSQVFLKINSLQTEDTAMYFCARYYFSSYGGGYFDYWGQGVMVTVSS VL: DTVLTQSPALAVSLGQRVTISCRASKSVSTYMHWYQQKSGQQPKLLIYSASNLESGVPSRFSGSGSGTDFTLTIDPVEADDIANYYCQQSDELPDTFGAGTKLELK
0.0231	1950	29D6B5 (antibody, V domains shown) VH: QVQLQQSGAELAEPGASVKMSCKASGYNFNNYWMHWVKQGPGQGLEWIGYIDPRTASIYYNQKFKDKATLTADKSSSTAYMQLSSLTSEDSAVYYCARILYGKYDVWGAGTTVIVSS VL: DVVLTQTPLSLPVSLGNQASISCRSSQSLVDSNGNTYLHWYLQKPGQSPKVLIHKVSNRFSGVPDRFSGSGSGTDFTLKISRVEAEDLGVYFCSQSTHVPPTFGGGTKLEIK
0.0163	8770	23A9H3 (antibody, V domains shown) VH: QVQLQQSGAELAKPGASVKMSCKTSGYTFTNYWMHWVKQRPGQGLEWIGYVIPSTGYTDYNQSFKDKATLTADKSSNTAYMQVNSLTSEDSAVYYCASLLPGFAYWGQGTLVTVSA VL: DVVMTQTPLSLPVSLGDQASISCRSSQSLVDSNGNTYLHWYLQKPGQSPKLLIYKVSNRFSGVPDRFSGSGSGTDFTLKISRVEAEDLGVYFCSQSTHVPPTFGGGTKLEIK
